Measured values taken from publication PMC9082959, “Mechanism of Assembly of the Non-Covalent Spectrin Tetramerization Domain from Intrinsically Disordered Partners” (Journal of molecular biology, 2013).
Positions count from the first letter of the chain named.

Experiments:
Assay in all cases: ITC; β16β17 at 25–50 μM in the cell titrated with 15–20 injections to 2–2.5 eq of α0α1; one-site binding model; PBS (50 mM sodium phosphate, 150 mM NaCl, pH 7.04), 25 °C; mutants only against the wild-type partner
Conditions in all cases: both partners purified
[1] = target: T1, β16β17 R13A (human, UniProt P11277 1898-2083, R2016A)
T1 construct: erythrocyte β-spectrin, human, residues 1898-2083 (β16β17); mutant of m2; also called R2016A; source: E. coli C41(DE3), purified (Ni2+ agarose, thrombin cleavage, gel filtration)
T1 sequence (looked up): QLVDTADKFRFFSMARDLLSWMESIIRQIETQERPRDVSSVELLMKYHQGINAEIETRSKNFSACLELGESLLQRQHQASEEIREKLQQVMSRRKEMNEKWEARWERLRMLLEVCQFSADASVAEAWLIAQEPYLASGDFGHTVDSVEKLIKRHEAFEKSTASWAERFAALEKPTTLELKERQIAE

[2] = target: T2, β16β17 A20G (human, UniProt P11277 1898-2083, A2023G)
T2 construct: erythrocyte β-spectrin, human, residues 1898-2083 (β16β17); mutant of m2; also called A2023G; source: E. coli C41(DE3), purified (Ni2+ agarose, thrombin cleavage, gel filtration)
T2 sequence (looked up): T1 sequence (looked up) with A119R, A126G

[3] = target: T3, β16β17 D39A (human, UniProt P11277 1898-2083, D2042A)
T3 construct: erythrocyte β-spectrin, human, residues 1898-2083 (β16β17); mutant of m2; also called D2042A; source: E. coli C41(DE3), purified (Ni2+ agarose, thrombin cleavage, gel filtration)
T3 sequence (looked up): T1 sequence (looked up) with A119R, D145A

[4] = target: T4, β16β17 S16G (human, UniProt P11277 1898-2083, S2019G)
T4 construct: erythrocyte β-spectrin, human, residues 1898-2083 (β16β17); mutant of m2; also called S2019G; source: E. coli C41(DE3), purified (Ni2+ agarose, thrombin cleavage, gel filtration)
T4 sequence (looked up): T1 sequence (looked up) with A119R, S122G

[5] = target: T5, β16β17 S57G (human, UniProt P11277 1898-2083, S2060G)
T5 construct: erythrocyte β-spectrin, human, residues 1898-2083 (β16β17); mutant of m2; also called S2060G; source: E. coli C41(DE3), purified (Ni2+ agarose, thrombin cleavage, gel filtration)
T5 sequence (looked up): T1 sequence (looked up) with A119R, S163G

B1: α0α1 (erythrocyte α-spectrin residues 2–163), wild type (domain or fragment, human, UniProt P02549 2-163, looked up)
chain: EQFPKETVVESSGPKVLETAEEIQERRQEVLTRYQSFKERVAERGQKLEDSYHLQVFKRDADDLGKWIMEKVNILTDKSYEDPTNIQGKYQKHQSLEAEVQTKSRLMSELEKTREERFTMGHSAHEETKAHIEELRHLWDLLLELTLEKGDQLLRALKFQQY
notes: synthetic gene (GenScript) in a modified pRSETA plasmid; also called α1α0; source: E. coli C41(DE3), purified (Ni2+ agarose, thrombin cleavage, gel filtration)
[1]
  Ka: 980000 M⁻¹
[2]
  Ka: 530000 M⁻¹
[3]
  Ka: 470000 M⁻¹
[4]
  Ka: 360000 M⁻¹
[5]
  Ka: 900000 M⁻¹
